Here are results for two substances from PMC5771688.

Assay [1] deals with VE-cadherin (VEC) of VEC-positive cells (VEC-null line reconstituted with VEC wild type cDNA) (UniProt P33151). The experiment in a line: co-IP.
For assay [2], the target named is β-catenin (endogenous) (mouse (endogenous in mouse ECs)) (UniProt Q02248). Kind of assay: co-IP.
Sequence of UniProt Q02248 (Q02248 whole entry): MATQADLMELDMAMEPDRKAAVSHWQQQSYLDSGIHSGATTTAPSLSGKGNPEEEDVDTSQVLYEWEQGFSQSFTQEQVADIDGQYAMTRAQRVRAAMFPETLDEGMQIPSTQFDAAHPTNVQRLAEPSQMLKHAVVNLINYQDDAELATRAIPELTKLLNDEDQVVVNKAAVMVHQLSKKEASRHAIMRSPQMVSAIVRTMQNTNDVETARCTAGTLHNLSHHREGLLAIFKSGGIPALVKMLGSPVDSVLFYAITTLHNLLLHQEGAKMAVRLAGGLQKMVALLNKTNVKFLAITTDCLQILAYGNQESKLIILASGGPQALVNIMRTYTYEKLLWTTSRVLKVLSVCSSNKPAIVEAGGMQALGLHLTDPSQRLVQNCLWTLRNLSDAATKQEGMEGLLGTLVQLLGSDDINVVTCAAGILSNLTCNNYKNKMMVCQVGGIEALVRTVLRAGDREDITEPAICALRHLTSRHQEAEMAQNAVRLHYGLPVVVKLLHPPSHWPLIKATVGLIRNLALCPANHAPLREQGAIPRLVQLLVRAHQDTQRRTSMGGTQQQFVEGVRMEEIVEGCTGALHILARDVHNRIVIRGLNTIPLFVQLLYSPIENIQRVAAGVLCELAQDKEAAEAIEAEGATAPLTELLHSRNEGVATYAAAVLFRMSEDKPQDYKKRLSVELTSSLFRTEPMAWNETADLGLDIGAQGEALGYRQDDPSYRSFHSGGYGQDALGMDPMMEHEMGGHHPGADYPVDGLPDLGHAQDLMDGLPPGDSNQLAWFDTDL

Sequence of UniProt P33151 (P33151 48-784): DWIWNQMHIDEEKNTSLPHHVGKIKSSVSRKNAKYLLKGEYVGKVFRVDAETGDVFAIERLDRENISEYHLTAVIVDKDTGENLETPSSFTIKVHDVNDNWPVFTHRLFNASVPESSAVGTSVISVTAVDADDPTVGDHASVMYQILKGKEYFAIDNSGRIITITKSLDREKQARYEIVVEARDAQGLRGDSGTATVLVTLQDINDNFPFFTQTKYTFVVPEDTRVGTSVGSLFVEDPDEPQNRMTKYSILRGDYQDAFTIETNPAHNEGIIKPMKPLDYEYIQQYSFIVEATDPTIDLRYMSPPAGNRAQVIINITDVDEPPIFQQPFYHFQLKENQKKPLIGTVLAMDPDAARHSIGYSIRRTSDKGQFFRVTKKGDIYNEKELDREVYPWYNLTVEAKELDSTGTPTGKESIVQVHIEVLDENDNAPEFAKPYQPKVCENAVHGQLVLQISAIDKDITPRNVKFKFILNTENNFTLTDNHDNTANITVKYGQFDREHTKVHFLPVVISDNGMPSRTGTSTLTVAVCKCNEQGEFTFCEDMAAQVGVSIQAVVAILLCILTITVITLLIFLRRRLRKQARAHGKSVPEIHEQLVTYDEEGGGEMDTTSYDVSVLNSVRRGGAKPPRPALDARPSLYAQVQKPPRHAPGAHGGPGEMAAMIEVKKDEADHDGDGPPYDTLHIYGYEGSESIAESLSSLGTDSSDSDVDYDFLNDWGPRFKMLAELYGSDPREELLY

In assay [1], “TAT-M10 (Ezh2 peptide M10 synthesized in tandem with TAT of human immunodeficiency virus) (from UniProt Q61188 454-473)” displayed a percent reduction of VEC/Ezh2 association of 45.3%.
Take “TAT-P30 (Ezh2 peptide P30 synthesized in tandem with TAT of human immunodeficiency virus) (from UniProt Q61188 585-604)”: the percent reduction of VEC/Ezh2 association in assay [2] was found to be 28%.
